The text below walks through data of patent publication US20130004527A1.

Sequences and labels used below:
B1: AllerR6 (peptide)
peptide: VLGRHGEAAAESMKWNWRTNKDVLENGAIFVASGVDPVLTPEQSAGMIPAEPGESALSLTSSAGVLSCQPGA
B2: AllerR1 (peptide)
peptide: TSGAYNIIDGCWRGKADWAENRKALADCAQGFGKGTVGGKDGDIYTVTSELDDDVANPK
B3: AllerR4.3 (peptide)
peptide: MHDVKVNPGGLIKSNDGPAAPRAGSDGDAISISGSSQIWIDHCSLSKSVDGLVDAKLGTTR
B4: AllerR2 (peptide)
peptide: DVANPKEGTLRFGAAQNRPLWIIFERDMVIRLDKEMVVNSDKTIDGRGAKVE
B5: AllerR5 (peptide)
peptide: TVAFNTFTDNVDQRMPRCRHGFFQVVNNNYDKWGSYAIGGSASPTILSQGNRFCAPDERSKKNVLGRHGE

The assay has as its target IgE in a panel of sera from 22 patients allergic to ragweed (human). Description: competition ELISA; tested as AllerR mix with 22 sera.
Turning to B1, the highest concentration without competition was greater than 10 µM.

With B2, the highest concentration without competition was greater than 10 µM.

As to B3, the highest concentration without competition was greater than 10 µM.

VDAKLGTTRLTVSNSLFTQHQFVLLFGAGDENIEDRGMLATVAFNTFTDN [AllerR4.2] had a highest concentration without competition greater than 10 µM.

The molecule B4 gave a highest concentration without competition greater than 10 µM.

Turning to B5, the highest concentration without competition was greater than 10 µM.

Molecule TIDGRGAKVEIINAGFTLNGVKNVIIHNINMHDVKVNPGGLIK [AllerR3] registered a highest concentration without competition greater than 10 µM.
